T1: ACT1, endogenous (human, UniProt O43734 1-574, limits assumed)
T1 sequence (looked up): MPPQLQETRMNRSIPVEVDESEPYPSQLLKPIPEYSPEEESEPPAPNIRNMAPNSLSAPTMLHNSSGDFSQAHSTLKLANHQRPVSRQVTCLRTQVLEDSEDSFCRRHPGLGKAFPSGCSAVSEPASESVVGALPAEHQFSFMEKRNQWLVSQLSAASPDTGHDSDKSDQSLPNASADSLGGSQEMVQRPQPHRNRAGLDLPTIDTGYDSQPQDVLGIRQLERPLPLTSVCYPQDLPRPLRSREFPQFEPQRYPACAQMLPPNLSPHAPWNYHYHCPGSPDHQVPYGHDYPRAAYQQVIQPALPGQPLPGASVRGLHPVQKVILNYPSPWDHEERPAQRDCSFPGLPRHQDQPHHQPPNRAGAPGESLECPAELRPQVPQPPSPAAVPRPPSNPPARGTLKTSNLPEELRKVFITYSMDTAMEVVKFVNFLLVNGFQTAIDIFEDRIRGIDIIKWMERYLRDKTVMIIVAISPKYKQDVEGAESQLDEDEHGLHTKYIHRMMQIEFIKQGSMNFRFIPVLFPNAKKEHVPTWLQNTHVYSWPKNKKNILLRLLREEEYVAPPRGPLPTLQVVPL

T2: TRAF6, endogenous (human, UniProt Q9Y4K3 1-522)
T2 sequence (looked up): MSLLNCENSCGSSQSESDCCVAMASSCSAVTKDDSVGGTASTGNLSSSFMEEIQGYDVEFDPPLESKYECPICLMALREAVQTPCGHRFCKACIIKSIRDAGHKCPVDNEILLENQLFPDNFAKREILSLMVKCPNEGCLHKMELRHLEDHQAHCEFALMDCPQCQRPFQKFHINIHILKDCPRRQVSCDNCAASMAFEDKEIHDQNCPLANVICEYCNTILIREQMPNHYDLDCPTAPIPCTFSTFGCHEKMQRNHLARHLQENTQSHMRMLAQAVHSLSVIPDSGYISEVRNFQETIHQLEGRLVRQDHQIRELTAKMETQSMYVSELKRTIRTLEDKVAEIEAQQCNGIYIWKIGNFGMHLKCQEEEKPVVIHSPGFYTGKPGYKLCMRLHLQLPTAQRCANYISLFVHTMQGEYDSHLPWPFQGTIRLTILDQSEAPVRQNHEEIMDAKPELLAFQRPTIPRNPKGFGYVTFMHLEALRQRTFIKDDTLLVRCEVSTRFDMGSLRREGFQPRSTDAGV

T3: TAK1, endogenous (human, UniProt O43318 1-606, limits assumed)
T3 sequence (looked up): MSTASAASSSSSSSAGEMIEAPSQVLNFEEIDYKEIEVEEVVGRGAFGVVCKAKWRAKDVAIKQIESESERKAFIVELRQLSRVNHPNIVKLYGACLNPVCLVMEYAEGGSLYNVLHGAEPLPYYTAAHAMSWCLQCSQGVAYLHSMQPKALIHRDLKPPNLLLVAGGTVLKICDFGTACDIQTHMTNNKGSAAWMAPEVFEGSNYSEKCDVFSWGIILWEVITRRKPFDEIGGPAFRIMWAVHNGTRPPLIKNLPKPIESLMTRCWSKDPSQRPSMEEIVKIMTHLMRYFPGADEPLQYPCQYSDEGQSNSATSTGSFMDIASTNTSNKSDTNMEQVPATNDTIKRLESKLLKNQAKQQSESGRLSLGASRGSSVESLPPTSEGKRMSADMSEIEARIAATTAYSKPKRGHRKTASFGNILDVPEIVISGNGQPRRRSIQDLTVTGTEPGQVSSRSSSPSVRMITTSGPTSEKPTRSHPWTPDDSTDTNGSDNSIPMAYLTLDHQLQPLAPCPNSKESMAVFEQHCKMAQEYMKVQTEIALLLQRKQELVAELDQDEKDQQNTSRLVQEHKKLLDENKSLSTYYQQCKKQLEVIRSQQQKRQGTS

T4: IL-17RB-HA (C-terminally HA-tagged full-length IL-17RB, wild type) (human, UniProt Q9NRM6 18-502)
T4 construct: Full-length IL-17RB subcloned into pcDNA3.1, expressed in 293T, IL-17RB-KO BxPC3 or SU.86.86 cells; also called HA-IL-17RB; HA-tagged WT IL-17RB; not shown: HA tag, C-terminal
T4 sequence: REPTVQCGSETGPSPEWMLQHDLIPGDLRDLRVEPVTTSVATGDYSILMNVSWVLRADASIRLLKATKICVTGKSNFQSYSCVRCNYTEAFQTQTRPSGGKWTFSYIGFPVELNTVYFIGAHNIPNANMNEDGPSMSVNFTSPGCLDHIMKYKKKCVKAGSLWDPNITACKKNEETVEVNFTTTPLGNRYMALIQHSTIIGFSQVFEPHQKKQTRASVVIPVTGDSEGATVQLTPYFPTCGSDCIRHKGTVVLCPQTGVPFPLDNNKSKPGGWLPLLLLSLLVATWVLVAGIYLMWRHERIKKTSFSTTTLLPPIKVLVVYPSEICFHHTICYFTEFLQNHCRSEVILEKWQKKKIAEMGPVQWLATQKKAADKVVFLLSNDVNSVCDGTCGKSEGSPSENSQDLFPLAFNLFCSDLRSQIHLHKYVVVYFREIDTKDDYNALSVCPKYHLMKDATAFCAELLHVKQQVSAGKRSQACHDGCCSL

B1: IL-17RB K470R, Flag-tagged (receptor)
chain: REPTVQCGSETGPSPEWMLQHDLIPGDLRDLRVEPVTTSVATGDYSILMNVSWVLRADASIRLLKATKICVTGKSNFQSYSCVRCNYTEAFQTQTRPSGGKWTFSYIGFPVELNTVYFIGAHNIPNANMNEDGPSMSVNFTSPGCLDHIMKYKKKCVKAGSLWDPNITACKKNEETVEVNFTTTPLGNRYMALIQHSTIIGFSQVFEPHQKKQTRASVVIPVTGDSEGATVQLTPYFPTCGSDCIRHKGTVVLCPQTGVPFPLDNNKSKPGGWLPLLLLSLLVATWVLVAGIYLMWRHERIKKTSFSTTTLLPPIKVLVVYPSEICFHHTICYFTEFLQNHCRSEVILEKWQKKKIAEMGPVQWLATQKKAADKVVFLLSNDVNSVCDGTCGKSEGSPSENSQDLFPLAFNLFCSDLRSQIHLHKYVVVYFREIDTKDDYNALSVCPKYHLMRDATAFCAELLHVKQQVSAGKRSQACHDGCCSL
notes: also called K470R-mutant IL-17RB; not shown: Flag tag
B2: IL-17RB ΔV403˜S416 (Del-3), HA-tagged (receptor)
chain: REPTVQCGSETGPSPEWMLQHDLIPGDLRDLRVEPVTTSVATGDYSILMNVSWVLRADASIRLLKATKICVTGKSNFQSYSCVRCNYTEAFQTQTRPSGGKWTFSYIGFPVELNTVYFIGAHNIPNANMNEDGPSMSVNFTSPGCLDHIMKYKKKCVKAGSLWDPNITACKKNEETVEVNFTTTPLGNRYMALIQHSTIIGFSQVFEPHQKKQTRASVVIPVTGDSEGATVQLTPYFPTCGSDCIRHKGTVVLCPQTGVPFPLDNNKSKPGGWLPLLLLSLLVATWVLVAGIYLMWRHERIKKTSFSTTTLLPPIKVLVVYPSEICFHHTICYFTEFLQNHCRSEVILEKWQKKKIAEMGPVQWLATQKKAADKVVFLLSNDVNSENSQDLFPLAFNLFCSDLRSQIHLHKYVVVYFREIDTKDDYNALSVCPKYHLMKDATAFCAELLHVKQQVSAGKRSQACHDGCCSL
notes: Deletion of the flexible loop; also called Del-3 mutant; not shown: HA tag

Key:
ACT1, endogenous = target: T1, ACT1, endogenous; experiment: co-IP with anti-Flag agarose, IL-17RB-KO BxPC3 cells, rIL-17B (FIG. 6G)
TRAF6, endogenous = target: T2, TRAF6, endogenous; experiment: as above
TAK1, endogenous = target: T3, TAK1, endogenous; experiment: as above
[1] = target: T4, IL-17RB-HA (C-terminally HA-tagged …); experiment: co-IP with anti-HA beads, IL-17RB-KO BxPC3 cells, 50 ng/ml rIL-17B (FIG. 14B)
Protocol: For reciprocal co-IP, the whole-cell extract was incubated with anti-Flag M2 agarose (A2220, Sigma-Aldrich) or anti-HA (HA-7) agarose (A2095, Sigma-Aldrich) at 4° C. for 2 hrs with gentle agitation. […] Bradford assay (Bio-Rad) was used for determining protein concentration.

Flag-MLK4 = target: T5, Flag-MLK4 (human, UniProt Q5TCX8 1-1036, limits assumed); experiment: reciprocal co-IP, 293T cells, rIL-17B (FIG. 5C)
T5 construct: also called Flag-tagged WT MLK4; not shown: Flag tag

[2] = target: T6, mixed-lineage kinase 4 (MLK4), endogenous (human, UniProt Q5TCX8 1-1036, limits assumed); experiment: co-IP with anti-HA beads, blot with anti-MLK4, rIL-17B (FIG. 5D)
T6 construct: also called KIAA1804; MAP3K21
T6 sequence (Q5TCX8 whole entry): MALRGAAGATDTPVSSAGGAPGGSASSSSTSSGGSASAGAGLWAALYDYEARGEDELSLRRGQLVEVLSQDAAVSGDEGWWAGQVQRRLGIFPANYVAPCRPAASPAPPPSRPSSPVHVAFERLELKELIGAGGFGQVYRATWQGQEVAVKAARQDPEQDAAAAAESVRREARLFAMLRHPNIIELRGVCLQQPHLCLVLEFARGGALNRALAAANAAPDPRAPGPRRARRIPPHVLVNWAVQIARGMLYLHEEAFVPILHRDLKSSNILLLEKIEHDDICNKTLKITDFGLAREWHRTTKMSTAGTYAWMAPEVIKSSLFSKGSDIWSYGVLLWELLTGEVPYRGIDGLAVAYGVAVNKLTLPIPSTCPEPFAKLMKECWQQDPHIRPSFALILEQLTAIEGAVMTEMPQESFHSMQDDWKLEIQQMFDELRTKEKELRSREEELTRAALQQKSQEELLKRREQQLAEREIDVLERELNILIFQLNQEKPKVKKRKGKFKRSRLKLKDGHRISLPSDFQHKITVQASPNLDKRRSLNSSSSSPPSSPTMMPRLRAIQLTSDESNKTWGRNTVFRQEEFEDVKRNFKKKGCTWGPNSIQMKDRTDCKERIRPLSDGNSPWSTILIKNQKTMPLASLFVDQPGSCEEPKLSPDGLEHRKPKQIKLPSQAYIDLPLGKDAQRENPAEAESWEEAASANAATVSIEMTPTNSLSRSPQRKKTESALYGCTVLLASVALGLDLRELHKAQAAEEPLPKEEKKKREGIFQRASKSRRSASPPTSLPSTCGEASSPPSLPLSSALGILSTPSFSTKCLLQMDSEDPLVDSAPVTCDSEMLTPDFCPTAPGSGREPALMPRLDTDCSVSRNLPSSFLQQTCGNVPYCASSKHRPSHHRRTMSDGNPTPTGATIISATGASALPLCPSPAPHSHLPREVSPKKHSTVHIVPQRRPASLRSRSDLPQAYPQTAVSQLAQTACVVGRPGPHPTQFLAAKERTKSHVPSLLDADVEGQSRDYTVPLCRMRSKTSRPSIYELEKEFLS

T5 sequence (Q5TCX8 whole entry): as above

Binder | binding result (ACT1, endogenous) | binding result (TRAF6, endogenous) | binding result (TAK1, endogenous) | binding result [1] | binding result (Flag-MLK4) | binding result [2]
B1 | no binding | no binding | no binding | binds | – | –
B2 | – | – | – | – | no binding | no binding

Reference: patent US20240124528A1 (ACADEMIA SINICA, published 2024)
